Paper PMC7540478

Assays:
purified protein [1] = substrate: OC[C@H]1O[C@@](CO)(O[C@H]2O[C@H](CO)[C@@H](O)[C@H](O)[C@H]2O)[C@@H](O)[C@@H]1O; test: purified protein; details: 2 M glycerol as acceptor, 50 mM MES pH 7.0, 30 °C
purified protein [2] = substrate: O=P(O)(O)O[C@H]1O[C@H](CO)[C@@H](O)[C@H](O)[C@H]1O; test: purified protein; details: 2 M glycerol as acceptor, 50 mM MES pH 7.0, 30 °C

B1: LmSucP (Leuconostoc mesenteroides) (protein)
chain: MEIQNKAMLITYADSLGKNLKDVHQVLKEDIGDAIGGVHLLPFFPSTGDRGFAPADYTRVDAAFGDWADVEALGEEYYLMFDFMINHISRESVMYQDFKKNHDDSKYKDFFIRWEKFWAKAGENRPTQADVDLIYKRKDKAPTQEITFDDGTTENLWNTFGEEQIDIDVNSAIAKEFIKTTLEDMVKHGANLIRLDAFAYAVKKVDTNDFFVEPEIWDTLNEVREILTPLKAEILPEIHEHYSIPKKINDHGYFTYDFALPMTTLYTLYSGKTNQLAKWLKMSPMKQFTTLDTHDGIGVVDARDILTDDEIDYASEQLYKVGANVKKTYSSASYNNLDIYQINSTYYSALGNDDAAYLLSRVFQVFAPGIPQIYYVGLLAGENDIALLESTKEGRNINRHYYTREEVKSEVKRPVVANLLKLLSWRNESPAFDLAGSITVDTPTDTTIVVTRQDENGQNKAVLTADAANKTFEIVENGQTVMSSDNLTQN
Which Km (purified protein [1]) does the source give for B1 here?
The Km was 1.4 ± 0.1 mM.

And the Km (purified protein [2])?
The Km was 12.5 ± 1.7 mM.

What about the kcat (purified protein [2]) of the same protein?
Its kcat is 36 ± 3 s⁻¹.
